# Measurements: patent publication US20150344570A1 (published 2015)
# T1: FcgRIIa R (human, UniProt P12318 34-217)
# T1 construct: extracellular domain; also called FcγRIIa R; FcγRIIa type R
# T1 sequence (looked up): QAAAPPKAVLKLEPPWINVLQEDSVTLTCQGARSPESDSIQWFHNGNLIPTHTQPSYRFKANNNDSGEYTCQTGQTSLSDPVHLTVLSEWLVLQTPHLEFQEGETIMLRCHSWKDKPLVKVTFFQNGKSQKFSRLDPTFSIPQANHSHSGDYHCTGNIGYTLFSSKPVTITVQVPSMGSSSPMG
# T2: FcgRIIa H (human, UniProt P12318 34-217)
# T2 construct: extracellular domain; also called FcγRIIa H; FcγRIIa type H
# T2 sequence (looked up): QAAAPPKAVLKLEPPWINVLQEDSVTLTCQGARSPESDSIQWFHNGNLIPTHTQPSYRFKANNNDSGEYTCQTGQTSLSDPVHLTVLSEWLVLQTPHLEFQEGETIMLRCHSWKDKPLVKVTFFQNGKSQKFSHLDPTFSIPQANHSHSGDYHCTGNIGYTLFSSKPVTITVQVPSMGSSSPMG
# T3: FcgRIIb (human, UniProt P31994 43-217)
# T3 construct: extracellular domain; also called FcγRIIb; CD32B
# T3 sequence (looked up): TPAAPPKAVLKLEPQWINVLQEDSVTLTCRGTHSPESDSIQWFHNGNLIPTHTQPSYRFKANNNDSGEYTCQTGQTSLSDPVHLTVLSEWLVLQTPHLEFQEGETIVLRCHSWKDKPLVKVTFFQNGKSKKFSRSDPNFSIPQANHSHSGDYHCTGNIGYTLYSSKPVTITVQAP
# B1: H240-Kn132/H240-Hl071/L73-k0 (antibody, human IgG1, kappa)
# heavy 1: QDQLVQSGAEVKKPGASVKVSCKASGFNIKDTYIQWVRQAPGQGLEWMGRIDPLRKQTKYREKFEGRVTITADTSTNTAYMELSSLRSEDTAVYYCVRSGREFDYWGQGTLVTVSSASTKGPSVFPLAPSSKSTSGGTAALGCLVKDYFPEPVTVSWNSGALTSGVHTFPAVLQSSGLYSLSSVVTVPSSSLGTQTYICNVNHKPSNTKVDKKVEPKSCDKTHTCPPCPAPELLGGPSVFLFPPKPKDTLMISRTPEVTCVVVDVSHEDPEVKFNWYVDGVEVHNAKTKPREEQYNSTYRVVSVLTVLHQDWLNGKEYKCKVSNDALPMPIEETISKAKGQPREPQVCTLPPSRDELTKNQVSLWCLVKGFYPSDIAVEWESNGQPENNYKTTPPVLDSDGSFFLYSKLTVDKSRWQQGNVFSCSVMHEALHNHYTQKSLSLSP
# heavy 2: QDQLVQSGAEVKKPGASVKVSCKASGFNIKDTYIQWVRQAPGQGLEWMGRIDPLRKQTKYREKFEGRVTITADTSTNTAYMELSSLRSEDTAVYYCVRSGREFDYWGQGTLVTVSSASTKGPSVFPLAPSSKSTSGGTAALGCLVKDYFPEPVTVSWNSGALTSGVHTFPAVLQSSGLYSLSSVVTVPSSSLGTQTYICNVNHKPSNTKVDKKVEPKSCDKTHTCPPCPAPELLGGPSVFLFPPKPKDTLMISRTPEVTCVVVDVSHEDPEVKFNWYVDGVEVHNAKTKPREEQYNSTYRVVSVLTVLHQDWLNGKEYKCKVSNDALPMPIEETISKAKGQPREPQVYTLPPSRCELTKNQVSLSCAVKGFYPSDIAVEWESNGQPENNYKTTPPVLDSDGSFFLVSKLTVDKSRWQQGNVFSCSVMHEALHNHYTQKSLSLSP
# light: DIQMTQSPSSLSASVGDRVTITCRASQDIHKYIAWYQQKPGQAPRLLIQYTSTLQPGVPSRFSGSGSGTDYTFTISSLQPEDIATYYCLQYEQLRTFGGGTKVEIKRTVAAPSVFIFPPSDEQLKSGTASVVCLLNNFYPREAKVQWKVDNALQSGNSQESVTEQDSKDSTYSLSSTLTLSKADYEKHKVYACEVTHQGLSSPVTKSFNRGEC
# notes: Anti-epiregulin IgG1, knobs-into-holes; called homodimerized as both H chains carry K326D/A330M/K334E
# B2: H240-Kn113/H240-Hl076/L73-k0 (antibody, human IgG1, kappa)
# heavy 1: QDQLVQSGAEVKKPGASVKVSCKASGFNIKDTYIQWVRQAPGQGLEWMGRIDPLRKQTKYREKFEGRVTITADTSTNTAYMELSSLRSEDTAVYYCVRSGREFDYWGQGTLVTVSSASTKGPSVFPLAPSSKSTSGGTAALGCLVKDYFPEPVTVSWNSGALTSGVHTFPAVLQSSGLYSLSSVVTVPSSSLGTQTYICNVNHKPSNTKVDKKVEPKSCDKTHTCPPCPAPEENWGPSVFLFPPKPKDTLMISRTPEVTCVVVDVSDEEPEVKFNWYVDGVEVHNAKTKPREEQYNATYRVVSVLTVLHQDWLNGKEYKCKVSNKALPAPIEKTISKAKGQPREPQVCTLPPSRDELTKNQVSLWCLVKGFYPSDIAVEWESNGQPENNYKTTPPVLDSDGSFFLYSKLTVDKSRWQQGNVFSCSVMHEALHNHYTQKSLSLSP
# heavy 2: QDQLVQSGAEVKKPGASVKVSCKASGFNIKDTYIQWVRQAPGQGLEWMGRIDPLRKQTKYREKFEGRVTITADTSTNTAYMELSSLRSEDTAVYYCVRSGREFDYWGQGTLVTVSSASTKGPSVFPLAPSSKSTSGGTAALGCLVKDYFPEPVTVSWNSGALTSGVHTFPAVLQSSGLYSLSSVVTVPSSSLGTQTYICNVNHKPSNTKVDKKVEPKSCDKTHTCPPCPAPELLGGPSVFLFPPKPKDTLMISRTPEVTCVVVDVSHEEPEVKFNWYVDGVEVHNAKTKPREEQYNSTYRVVSVLTVLHQDWLNGKEYKCKVSNDALPMPIEETISKAKGQPREPQVYTLPPSRCELTKNQVSLSCAVKGFYPSDIAVEWESNGQPENNYKTTPPVLDSDGSFFLVSKLTVDKSRWQQGNVFSCSVMHEALHNHYTQKSLSLSP
# light: DIQMTQSPSSLSASVGDRVTITCRASQDIHKYIAWYQQKPGQAPRLLIQYTSTLQPGVPSRFSGSGSGTDYTFTISSLQPEDIATYYCLQYEQLRTFGGGTKVEIKRTVAAPSVFIFPPSDEQLKSGTASVVCLLNNFYPREAKVQWKVDNALQSGNSQESVTEQDSKDSTYSLSSTLTLSKADYEKHKVYACEVTHQGLSSPVTKSFNRGEC
# notes: H240-Kn113: Y234E and Y235N introduced into H240-Kn072
# B3: H240-Kn115/H240-Hl076/L73-k0 (antibody, human IgG1, kappa)
# heavy 1: QDQLVQSGAEVKKPGASVKVSCKASGFNIKDTYIQWVRQAPGQGLEWMGRIDPLRKQTKYREKFEGRVTITADTSTNTAYMELSSLRSEDTAVYYCVRSGREFDYWGQGTLVTVSSASTKGPSVFPLAPSSKSTSGGTAALGCLVKDYFPEPVTVSWNSGALTSGVHTFPAVLQSSGLYSLSSVVTVPSSSLGTQTYICNVNHKPSNTKVDKKVEPKSCDKTHTCPPCPAPEYYWGPMVFLFPPKPKDTLMISRTPEVTCVVVDVSDEEPEVKFNWYVDGVEVHNAKTKPREEQYNATYRVVSVLTVLHQDWLNGKEYKCKVSNKALPAPIEKTISKAKGQPREPQVCTLPPSRDELTKNQVSLWCLVKGFYPSDIAVEWESNGQPENNYKTTPPVLDSDGSFFLYSKLTVDKSRWQQGNVFSCSVMHEALHNHYTQKSLSLSP
# heavy 2: QDQLVQSGAEVKKPGASVKVSCKASGFNIKDTYIQWVRQAPGQGLEWMGRIDPLRKQTKYREKFEGRVTITADTSTNTAYMELSSLRSEDTAVYYCVRSGREFDYWGQGTLVTVSSASTKGPSVFPLAPSSKSTSGGTAALGCLVKDYFPEPVTVSWNSGALTSGVHTFPAVLQSSGLYSLSSVVTVPSSSLGTQTYICNVNHKPSNTKVDKKVEPKSCDKTHTCPPCPAPELLGGPSVFLFPPKPKDTLMISRTPEVTCVVVDVSHEEPEVKFNWYVDGVEVHNAKTKPREEQYNSTYRVVSVLTVLHQDWLNGKEYKCKVSNDALPMPIEETISKAKGQPREPQVYTLPPSRCELTKNQVSLSCAVKGFYPSDIAVEWESNGQPENNYKTTPPVLDSDGSFFLVSKLTVDKSRWQQGNVFSCSVMHEALHNHYTQKSLSLSP
# light: DIQMTQSPSSLSASVGDRVTITCRASQDIHKYIAWYQQKPGQAPRLLIQYTSTLQPGVPSRFSGSGSGTDYTFTISSLQPEDIATYYCLQYEQLRTFGGGTKVEIKRTVAAPSVFIFPPSDEQLKSGTASVVCLLNNFYPREAKVQWKVDNALQSGNSQESVTEQDSKDSTYSLSSTLTLSKADYEKHKVYACEVTHQGLSSPVTKSFNRGEC
# notes: H240-Kn115: S239M introduced into H240-Kn072
# Tests used:
# [1] = molecular target: T4, FcγRIIIa V extracellular domain with C-terminal His tag (human, UniProt P08637 17-208); assay: SPR (Biacore), antibody captured on chip, soluble FcγR as analyte, 1:1 Langmuir fit
# T4 construct: extracellular domain; Soluble receptor, V158 allotype; also called FcgRIIIa V; FcgRIIIaV; not shown: His tag at the C terminus
# Procedure: (§1) Specifically, H240-Hl134 (SEQ ID NO: 88) resulting from introduction of L234Y/L235Y/G236W/H268D/S298A into H240-Hl033 and H240-Kn132 (SEQ ID NO: 89) resulting from introduction of K326D/A330M/K334E into H240-Kn033 were constructed according to the method described in Reference Example 1.
# (§2) Analysis of interaction between objective antibody and the FcγR was carried out using Biacore T100 (GE Healthcare), Biacore T200, Biacore A100, and Biacore 4000. HBS-EP+ (GE Healthcare) was used as the running buffer, and the measurement temperature was set to 25° C. Chips produced by immobilizing the antigen peptide by the amine coupling method to a Series S sensor Chip CM5 (GE Healthcare), chips produced by allowing preliminarily biotinylated antigen peptides to interact with and immobilize onto a Series S Sensor Chip SA (certified) (GE Healthcare), chips produced by immobilizing Protein L (ACTIGEN, BioVision) to Series S Sencor Chip CM5 (GE Healthcare), or chips produced by immobilizing Protein A/G (Thermo Scientific) to Series S Sencor Chip CM5 (GE Healthcare) were used. Antibodies of interest were captured onto these chips, and allowed to interact to each FcγR diluted with running buffer. To regenerate and repeatedly use the chip, the antibodies captured onto the chip were washed off by reacting 10 mM glycine-HCl, pH 1.5.
# [2] = molecular target: T5, FcγRIIIa F extracellular domain with C-terminal His tag (human, UniProt P08637 17-208); assay: as above
# T5 construct: extracellular domain; Soluble receptor, F158 allotype; also called FcgRIIIa F; FcgRIIIaF; not shown: His tag at the C terminus
# Procedure: as §1, §2
# FcgRIIa R = molecular target: T1, FcgRIIa R; assay: SPR (Biacore), antibody captured, FcgR as analyte
# Procedure: (§3) H240-Kn113 (SEQ ID NO: 92) resulting from introduction of Y234E and Y235N into H240-Kn072, H240-Kn115 (SEQ ID NO: 93) resulting from introduction of S239M into H240-Kn072, and H240-Kn125 (SEQ ID NO: 94) resulting from introduction of Y235Q and S239M into H240-Kn072 were prepared according to the method described in Reference Example 1. H240-Kn113/H240-Hl076/L73-k0, H240-Kn115/H240-Hl076/L73-k0, and H240-Kn125/H240-Hl076/L73-k0 were prepared by combining H240-Hl076 as an H chain, L73-k0 as the L chain, and H240-Kn113, H240-Kn115, and H240-Kn125 as the other H chain according to the method described in Reference Example 1.
# as §2
# FcgRIIa H = molecular target: T2, FcgRIIa H; assay: SPR (Biacore), antibody captured, FcgR as analyte
# Procedure: as §3, §2
# FcgRIIIa F = molecular target: T6, FcgRIIIa F (human, UniProt P08637 17-208); assay: SPR (Biacore), antibody captured, FcgR as analyte
# T6 construct: extracellular domain; polymorphic site made after J. Clin. Invest; also called FcγRIIIa F
# Procedure: as §3, §2
# FcgRIa = molecular target: T7, FcgRIa (human, UniProt P12314 16-292); assay: SPR (Biacore), antibody captured, FcgR as analyte
# T7 construct: extracellular domain; also called FcγRIa; FcγRI
# Procedure: as §3, §2
# FcgRIIb = molecular target: T3, FcgRIIb; assay: SPR (Biacore), antibody captured, FcgR as analyte
# Procedure: as §3, §2
# FcgRIIIa V = molecular target: T8, FcgRIIIa V (human, UniProt P08637 17-208); assay: SPR (Biacore), antibody captured, FcgR as analyte
# T8 construct: extracellular domain; polymorphic site made after J. Clin. Invest; also called FcγRIIIa V
# Procedure: as §3, §2
# T6 sequence (P08637 17-208): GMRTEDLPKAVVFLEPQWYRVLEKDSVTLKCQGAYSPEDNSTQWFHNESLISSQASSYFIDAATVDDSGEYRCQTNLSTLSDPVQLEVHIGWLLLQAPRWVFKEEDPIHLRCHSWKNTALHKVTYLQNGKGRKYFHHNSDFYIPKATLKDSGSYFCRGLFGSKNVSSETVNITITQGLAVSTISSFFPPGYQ
# T8 sequence (P08637 17-208 F176V limits assumed): as the sequence (P08637 17-208) above, with F160V counted along it
# T7 sequence (P12314 16-292): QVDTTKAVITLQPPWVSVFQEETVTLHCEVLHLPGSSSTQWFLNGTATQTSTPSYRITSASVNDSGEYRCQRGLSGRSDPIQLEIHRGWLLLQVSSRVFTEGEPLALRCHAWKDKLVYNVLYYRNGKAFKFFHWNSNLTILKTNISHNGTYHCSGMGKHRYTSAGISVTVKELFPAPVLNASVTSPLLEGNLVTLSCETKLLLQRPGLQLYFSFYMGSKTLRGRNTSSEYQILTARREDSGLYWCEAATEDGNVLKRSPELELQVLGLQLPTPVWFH
# T5 sequence (P08637 17-208): as the sequence (P08637 17-208) above
# T4 sequence (P08637 17-208 F176V): as the sequence (P08637 17-208) above, with F160V counted along it
binder,measurement,setting,value
B1,Kd,[1],16 nM
same,Kd,[2],77 nM
B2,Kd,FcgRIIa R,600 nM
same,Kd,FcgRIIa H,350 nM
same,Kd,FcgRIIIa F,1.7 nM
same,Kd,FcgRIa,0.21 nM
same,Kd,FcgRIIb,5000 nM
same,Kd,FcgRIIIa V,0.62 nM
B3,Kd,FcgRIIa R,130 nM
same,Kd,FcgRIIa H,62 nM
same,Kd,FcgRIIIa F,1.4 nM
same,Kd,FcgRIa,0.27 nM
same,Kd,FcgRIIb,1300 nM
same,Kd,FcgRIIIa V,0.43 nM
